Laboratory results: PMC2668188, “In Vitro Recombination Catalyzed by Bacterial Class 1 Integron Integrase IntI1 Involves Cooperative Binding and Specific Oligomeric Intermediates”

T1: IntI1(His)6 integron integrase (Pseudomonas aeruginosa Pa695 (class 1 …, UniProt Q7BP41 1-337))
T1 sequence: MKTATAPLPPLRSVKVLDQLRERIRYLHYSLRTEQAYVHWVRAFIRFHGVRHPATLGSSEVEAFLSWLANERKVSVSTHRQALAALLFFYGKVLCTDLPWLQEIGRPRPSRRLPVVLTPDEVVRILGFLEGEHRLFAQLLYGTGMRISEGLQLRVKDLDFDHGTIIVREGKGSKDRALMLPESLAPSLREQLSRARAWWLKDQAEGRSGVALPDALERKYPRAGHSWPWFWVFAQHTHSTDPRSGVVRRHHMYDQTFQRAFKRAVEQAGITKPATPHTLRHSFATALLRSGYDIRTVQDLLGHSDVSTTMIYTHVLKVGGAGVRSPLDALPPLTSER

B1: dsattC (dsDNA)
DNA 1: CGCCCGTCTAACAATTCGTTCAAGCCGACGTTGCTTCGTGGCGGCGCTTGCGTGCTACGCTAAGCTTCGCACGCCGCTTGCCACTGCGCACCGCGGCTTAACTCAGGCGTTAGATGCACT
DNA 2: AGTGCATCTAACGCCTGAGTTAAGCCGCGGTGCGCAGTGGCAAGCGGCGTGCGAAGCTTAGCGTAGCACGCAAGCGCCGCCACGAAGCAACGTCGGCTTGAACGAATTGTTAGACGGGCG
B2: dsattI1 (dsDNA)
DNA 1: ACGCCGTGGGTCGATGTTTGATGTTATGGAGCAGCAACGATGTTACGCAGCAGGGCAGTCGCCCTAAAACAAAGTTAGGTGGCTCAATGAGCATCATTGC
DNA 2: GCAATGATGCTCATTGAGCCACCTAACTTTGTTTTAGGGCGACTGCCCTGCTGCGTAACATCGTTGCTGCTCCATAACATCAAACATCGACCCACGGCGT

Tests used:
[1] = target: T1, IntI1(His)6 integron integrase; experiment: EMSA; filter binding; preincubated with dsattI1 (0.1 pmol); binding strongly increased, almost to bsattC level; EMSA: 0.1 pmol DNA, 1-15 pmol IntI1 in 20 µl, 20 min at 4°C, 1% agarose at 4°C; filter binding wash: HEPES 20 mM pH 7.5, MnCl2 10 mM, NaCl 30 mM (binding buffer itself not given); conditions: protein: recombinant; tags: His6; chain copies: 2; label: 5' 32P; blunt
[2] = target: T1, IntI1(His)6 integron integrase; experiment: EMSA; EMSA: 0.1 pmol DNA, 1-15 pmol IntI1 in 20 µl, 20 min at 4°C, 1% agarose at 4°C; filter binding wash: HEPES 20 mM pH 7.5, MnCl2 10 mM, NaCl 30 mM (binding buffer itself not given); conditions: protein: recombinant; tags: His6; chain copies: 2; label: 5' 32P; blunt

Row | Binder | binding result [1] | binding result [2]
1 | B1 | binds | –
2 | B2 | – | binds
